{"source": "paper PMC6754399", "target": "Wild-type CFTR (cystic fibrosis transmembrane conductance regulator) N-terminally labelled with GFP or RFP (UniProt P13569)", "experiment": "FRET or BRET; acceptor-photobleaching FRET between GFP-CFTR (donor) and RFP-CFTR (acceptor) in fixed HEK293T cells, measured intracellularly, basal conditions (air exposure)", "data": [{"substance": "Wild-type CFTR (cystic fibrosis transmembrane conductance regulator) N-terminally labelled with GFP or RFP (from UniProt P13569 1-1480) (natural protein)", "values": [{"measurement": "FRET efficiency (%E)", "result": 0, "unit": "%"}]}]}
